For 14 variants, response results are on record in PMC7801473 (2021).

The labels stand for the following.
B1: ASC^CARD (M2H fusion) [human] / NLRP1^CARD (M2H fusion) [human] (parent complex)
chain 1: AAKPGLHFIDQHRAALIARVTNVEWLLDALYGKVLTDEQYQAVRAEPTNPSKMRKLFSFTPAWNWTCKDLLLQALRESQSYLVEDLERS
chain 2: DAPQLLHFVDQYREQLIARVTSVEVVLDKLHGQVLSQEQYERVLAENTRPSQMRKLFSLSQSWDRKCKDGLYQALKETHPHLIMELWEKG
B2: NLRP1^CARD (M2H fusion) [human] / ASC^CARD (M2H fusion) [human] (parent complex)
chain 1: B1 chain 2
chain 2: B1 chain 1

One assay covers variants of B1. Briefly: M2H (mammalian two-hybrid, luciferase); HEK293T cells; GAL(DBD)-NLRP1^CARD with VP16-ASC^CARD; luciferase normalized to Renilla; parent: 2.1; read off a plot.
Consider chain 1 AAKPGLHFIDQHRAALIARVTNVEWLLKALYGKVLTDEQYQAVRAEPTNPSKMRKLFSFTPAWNWTCKDLLLQALRESQSYLVEDLERS, for which the response is ~0.78 fold of negative control.
For the variant chain 1 AAKPGLHFIDQHRAALIARVTNVEWLLDALYGKVLTAAQYQAVRAEPTNPSKMRKLFSFTPAWNWTCKDLLLQALRESQSYLVEDLERS, the response is ~1.4 fold of negative control.
Still for that read-out and setting: the value for chain 1 AAKPGLHFIDQHRAALIARVTNVEWLLDALYGKVLTDEQYQAVRAEPTNPSKMEKLFSFTPAWNWTCKDLLLQALRESQSYLVEDLERS was ~0.87 fold of negative control.
On the same count and under the same terms, the value for chain 1 AAKPGLHFIDQHRAALIARVTNVEWLLDALYGKVLTDEQYQAVRAEPTNPSKMRKLFSFTPAGAWTCKDLLLQALRESQSYLVEDLERS was ~1.2 fold of negative control; that for chain 1 AAKPGLHFIDQHRAALIAAVANVEWLLDALYGKVLTDEQYQAVRAEPTNPSKMRKLFSFTPAWNWTCKDLLLQALRESQSYLVEDLERS was ~1.1 fold of negative control.
On to chain 1 AAKPGLHFIDQHRAALIARVTAVRWLLDALYGKVLTDEQYQAVRAEPTNPSKMRKLFSFTPAWNWTCKDLLLQALRESQSYLVEDLERS, for which the response is ~0.8 fold of negative control.
Still for that read-out and setting: the value for chain 1 AAKPGLHFIDQHDAALIARVTNVEWLLDALYGKVLTDEQYQAVRAEPTNPSKMRKLFSFTPAWNWTCKDLLLQALRESQSYLVEDLERS was ~0.57 fold of negative control.

The variants in a further assay derive from B2. The assay is described as follows: M2H (mammalian two-hybrid, luciferase); HEK293T cells; GAL(DBD)-ASC^CARD with VP16-NLRP1^CARD; luciferase normalized to Renilla; parent: 3; read off a plot.
For the variant chain 1 DAPQLLHFVDQYREQLIARVTSVEVVLDKLHGQVLSAEQYRRVLAENTRPSQMRKLFSLSQSWDRKCKDGLYQALKETHPHLIMELWEKG, the response was ~1.7 fold of negative control.
Same read-out and setting: the value for chain 1 DAPQLLHFVDQYREQLIARVTSVEVVLDKLHGQVLSQEQYERVLAENTRPSQMAKLFSLSQSWDRKCKDGLYQALKETHPHLIMELWEKG was ~1.5 fold of negative control.
The same measure, in the same setting: the value for chain 1 DAPQLLHFVDQYREQLIAAVTSVEVVLDKLHGQVLSQEQYERVLAENTRPSQMRKLFSLSQSWDRKCKDGLYQALKETHPHLIMELWEKG was ~1.1 fold of negative control; that for chain 1 DAPQLLHFVDQYREQLIARVTSVRVVLKKLHGQVLSQEQYERVLAENTRPSQMRKLFSLSQSWDRKCKDGLYQALKETHPHLIMELWEKG was ~0.77 fold of negative control; that for chain 1 DAPQLLHFVDQYREQLIARVTSVEVVLDKLHGQVLSQEQYERVLAENTRPSQMRKLFSLSQSWDRKCKDGLYQALKETHPELIMELWEKG was ~0.98 fold of negative control.
On the same count and under the same terms, the value for chain 1 DAPQLLHFVDQYREQLIAAVTSVEVVLDKLHGQVLSQEQYERVLAENTAPSQMRKLFSLSQSWDRKCKDGLYQALKETHPHLIMELWEKG was ~1.8 fold of negative control; that for chain 1 DAPQLLHFVDQYREQLIARVTSVEVVLDKLHGQVLSQEQYERVLAENTRPSQMRKLFSLSQSGKRKCKDGLYQALKETHPHLIMELWEKG was ~0.97 fold of negative control.
